This assay concerns the target TAG-72 positive bovine submaxillary mucin (BSM) (bovine). The assay can be described thus: relative affinity constant from competition RIA on BSM.

The substance “humanized monoclonal antibody CC49 (HuCC49)” displayed a Ka of 3.2e+08 M⁻¹.

Source of the values: patent EP1127148B1.
